In the nanobody polyreactivity screen of Harvey et al. (2022):

Experiment: yeast display, Sf9 membrane polyspecificity reagent, FACS + sequencing; frameworks hold sequencing errors
Procedure, shortened: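 A nanobody's polyreactivity label depends on the gate it was sorted from. Yeast display cells were stained with 10% biotinylated, detergent-solubilized Sf9 membrane reagent for 1 hour at 4 °C, enriched on streptavidin microbeads and sorted by FACS. The low and high (top ~1%) gates were set on anti-HA fluorescence for expression and streptavidin fluorescence for reagent binding.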

Sequence	polyreactivity (PSR sort gate)
QVQLVESGGGLVQAGGSLRLSCAASGSTFHRNAMGWSRQAPGKERELVAAISFSGGRTYYADSVKGRFTISRDNAKNTVNLQMNSLKPEDTAVYYCAAVTASPGSYPDDYWGQGTQVTVSS	low polyreactivity
QVQLVESGGGVVQAGGSLRLSCAASGFIFWVYALGWYRQAPGKASELVAAITGRGGRTYYVDAVKGRFTISRDNAKNTVYLQMNSLKPEDTAVYYCNTVPYPAYLARMVYWGQGTQVTVTS	high polyreactivity
QVQLVESGGGLVQAGGRLRLSCAASGIIFTVYAMGWYRQAPGKERELVAAITSSGGRTYYADSVKGRFTISRDNAKNTVYLHMNSLKPEDTAVYYCAARLPGYVRKYDYWGQGTQVTVSS	high polyreactivity
QVQLVESGGGLVQAGGSLRLSCAASVRTMRTYTMGWYRQAPGIERELVAAISSSDDSTYYADSVKGRFTISRDNEKNTVYLQMNSLKPEDTAVYYCAKDGLYPTEYGYWGQGTQVTVSS	high polyreactivity
QVQLVESGGGLVQAGGSLRLSCAASGGIFGYYVMGWYRQAAGNERELVAVITRGGSTNYADSVKGRFTISRDNAKNTVYLQMNSLKPEDTAVYYCAKDVPYRRVRSEYWGQGTQVTVSS	low polyreactivity
QVQLVESGGGLVQAGGSLRLSCAASGLTFAKNAMGWYRQAPGKERELVAAITTGGSTYYADSVKGRFTISRDNAKNTVYLQMNSLKPEDTAVYYCAAQILVRHIPYYYWGQGTQVTVSS	high polyreactivity
QVQLVESGGGLVQAGGSLRLSSAASGRIFDYYAMGWYRQAPGKESELVAAISSGSSTNYADSVKGRFTISRDNAKNTFYLQMNSLKPEDTAVYYCAATYGYLRRNHYNYWGQGTQVTVSS	high polyreactivity
QVQLVESGGGLVQAGGSLRLSCAASGSIFQYYGMVWYRQAPGKERELVASISRSGGSTYYADSVKGRFTISRDNAKNTVYLQMNSLKPEDTAVYYCNAKEPIRRTHLTSTYRDGYWGQGTQVTVSS	low polyreactivity
QVHLVESGGGLVQAGGSLRLSCAASGSIFGTYAMGWYRQPPGKESELVAAITSSGGSTYYADSVKGRFTISRDNAKNTVYLQMNSLKPEDTAVYYCAAYLRIRVGVPVRTYYYWGQGTQVTVSS	high polyreactivity
QVQLVESGGGFVQAGGSLRLSCAASGLTFYGYAMGWYRQEPGKERELVAAISGSGARTYYADSVKGRFTISRDNAKNTVYFQMNSLKPEDTAVYYCAVRGSWYSEHNYWGQGTQVTVSS	high polyreactivity
QVQLVESGGGLVQAGGSLRLSCAASGSIFIVYAMGWYRQAPGKERELVAGIRGRGGSTYYADSVKGRFTISRDNAKNTVYLQMNSLKPEDTAVYYCAANPRSYQSPYGYWGQGTQVTVSS	high polyreactivity
QVQLVESGGGLFQAGGSLRLSCAASGRIFYSNAMGWYRQAPGKERELVASISPNSGPTYYADSVKGRFTISRDNAKNTVYLQMNSLKPEVTAVYYCAARGGYYQDGLVTGVAEYGYCGQGTQVTVSS	low polyreactivity
PVQLVESGGGLVQAGGSLRLSCAACGYTFQVYAMGWYRQAPGKERELVASIRWRGGRTYYADSVKGRFTISRDNAKNTVYLKLNSLKPADTSVYYCAARQFVIYPTYYTYYYWGQGTQVTVSS	high polyreactivity
QVQHVESGGGLVQAGGSLRLSCAASGSIFAYNAMGCYRQARGKERELVAAITSSGGSTYYADSVKGRFTISRDNAKNTVYLPMNSLKPEDTAVYYCNAYGYFKKYNYWGQGTQVTVSS	high polyreactivity
QVQLVESGGGLVQAGGSLRLTCAASRRTFEHYAMGWYRQAPVKEREYVAAINSSDGGTYYADSVKGRFTISRDNAKNTVYLQMIRLKPDDSAVYYCAAAEFGSVPGYEMDYWGQGTQVTVSS	low polyreactivity
QVHLVESGGGLVQAGGSLSLSCAASGLNFRTYAMGWYRQAPGKERELVAAISSSGGSTYYADSVKGRFTISRDNAKNTVYLQMNSLKPEDTAVYYCNVGSRRRRYLDRYEYWGQGTQVTVSS	high polyreactivity
QVQLVESGGGLVQAGGSLRLSCAASGFTFLNYDMGWYRQAPGKERELVAAISRSDGITYYADSVKGRFTISRDNAKNSVYLHMNSLKPEDTAVYYCAAERDTPVGVPGYEYYYWGQGTQVTVSS	high polyreactivity
QVQLVESGGGLVQAGGSLRLSCAASGIIFRVNAMGWYRQAPGKERELVAAISSGGRTYYADSVKGRFTISRDNAKNTVYLQMNSLKPEDTAVYYCAAKPPSTYDYWGQGTQVTVSS	high polyreactivity
QVQLVESGGGLVQAGGSLRLSCAASGSILYYYTMGWYRQAPGQDRELVAAITSSGGSTYYADSVKGRFTISRDNATKTVYLQMNSLKPEDTAVDYCNVDSGRSYRVARYDYWGQGTQVTVSS	low polyreactivity
QVQHVESGGGLVQAVGSLRLSCAASGRIVYYVMGWYRQAPGKERELVAAISTRGGSTYYADSVKGRFTISLDNAKNTVYLQMNSLTPEDTAVYYCAASSLLTRYNSWGQGTQVTVSS	high polyreactivity
QVELVESGGGLVQAGGSLRLICAASGFTYTWNAMGWYRQAPGKERELVAGITRGGSTNYADSVKGRFTISRDNAKNTVYLQINSLKPEDTAVYYCNVSFYFHHAGYDFWGQGTQVTVSS	low polyreactivity
QVQLVETGAGLVQAGGSLRLSCGASGLTFARYAMGWYRQAPGKERELVAGIDSTGGTTYYADSVKGRFTISRDNAKNTVYLQMNSLKPVDTAVYYCYYWGLGTQVTVSS	low polyreactivity

Sequence	polyreactivity (PSR sort gate)
QVQLVESGGGLVQAGGSLRLSCADSGRTFGPYAMGWYRQAPGKERELVAAITSSGGSTYYADSVKGRFTISRDNAKNTVSLQMNSLKPEDTAVYYCNKLYWRQSQDYDYWGQGTQVTVSS	low polyreactivity
QVELVESGGGLVQAGGSLRLSCAASGFTFHSNVMGWYRQAPGKERELVAAISNGGGSTYYADSVKGRFTISRDNAKNTVYLQMNSLKPEDTAVYYCDKRTYPGFGYWGQGTQVTVSS	high polyreactivity
QVQLVESGGGLVQAGGSLRLSCAASGFTFWEYAMGWYRQAPGKERELVAAIRDRGVNTYYADSVKGRFTISRDNAKNTVYLQMNSLKPVDTAVYYCAKSTRRGGVALGEYDYWGQGSQVTVSS	low polyreactivity
QVQLVESGGGLVQAGGSLRLSCAASGSIFGYYAMGWYRQAPGKERELVAAITYSGGRTYYADSVKGRFTISRDNAKNTVYLQMNSLKPEDTAVYYCARAPPGDRFVRYDYWGQGTQVTVSS	high polyreactivity
QVQLVESGGGLVQAGGSLRVSSAASGSIFDYYEMGWYRQAPGKEREMVAAINISGGDTYYADSVKGRFTISRDNAKNTVYLQMNSLNPEDTAVYYCAADWVTWWFSRVGWDYGYWGQGTQVTVSS	low polyreactivity
QVQLVESGGGLVQAGGSLRLSCAASGSIFRIYAMGWYRQAPGQESELVAAINAGGGRTYYADSVKGRFTISRDNAKNTVYLQMNSLKPEDTAVYYCAARHTEYRQESLYYWGQGTQVTVSS	low polyreactivity
QVQLVESGGGLVQAGGSLRLSCAASGNTFYINTMGWYRQAPGKEREFVAAITWSGGPTYYADSVKGRFTISRDNAKNTVYLQMNSLKPEDTAVYYCAADSRGEDYYYWGQGTQVTVSS	high polyreactivity
QVQLVESGGGLVQAGGSLRLICAASGRISAFNAMGWYRQAPGKERELVAAINVSGGNTYYADSVKGRFTISRDNAKNTVYLQMNSMKPEDTAVYYCAAERRRWGLDYYYWGQGTQVTVSS	high polyreactivity
QVQLVDSGGGLVQAGGSLRLSCAASGSTFQPYAMGWYRQAPGKERELVAAIRYSGGITYYADSVKGRFTISRDNAKNTVYLQMNSLKPEDTAVYYCAAYGFYGGDYWGQGTQVTVSS	high polyreactivity
QVQLVESGGGLVQAGGSLRLSCAASGRIFSFYTMGWYRQAPGKERELVAAITWRGGSTYYADSVKGRFTISRDNAKNTVYLQMNSLKPEDTAVYYCAAEVYGAVYDYWGQGTQVTVSS	low polyreactivity
QVQLVESGGGLVQAGGSLRLSCAASGSILVQSAMGWERQAPGKERELVAAISRGGSTNYADSVKGRFTISRDNPKNTVYLQMNSLKPEDTAVYYCAARRPWGEYYWGQGTQVNVSS	low polyreactivity
QVQLEESGGGLDQAGGSLRLSCAASGIIFGYYAMGWYIQAPGKQSEFVAAINYSGVSTYYADSVKGRFTISLDNAKNTVYLEMHSLKPEDTAVYYCAAGPYAGVDPGYYYYWGKGTQVTVSS	low polyreactivity
QVQLVQSGGGLVQAGGSLRLSCAASGITFIHNAMGWYRQAPGKERELVAAITTSDGSTYYADSVKGRFTISRDNAKYTVYFQMNSLTPEDTAVYYCAARGRHSGYYSFPYYYWGQGTQVTVSS	low polyreactivity
QVQLVESGGGLVQAGGSLRLSCAASGFTFYRYAMGWYRQAPGKERELVATISASGGSTYYADSVKGRFTISRDNAKNTVYLQMNSLKPEDTAVYYCAVRYKSWFGFNYWGQGTQVSVSS	high polyreactivity
QVQLVESGGGLVQAGGSLRLSCAASGLTIFVNAMGWYRQAPGKERELVATISCGGSTYYADSVKGRFTISRDNANNTVYLQLNSLKPEDSSVFYCNAADVGGQWWYPYTYNYWGQGTQVTVSS	low polyreactivity
QVQLVESGGGLVQAGGSLRLSCAASGYIFGGYAMGWYRQAPGKERELVAGISIGVGSTYYADSVKGRFTISRDNAKNTVYLQMNSLKPEDTAVYYCNRDSVGYDYWGQGTQVTVSS	low polyreactivity
QVQHVESGGRLVQAGGSLRLSCAASGITFRVYALGWYRQPRGKERELVAAITSSGGSTYYADSVKGRFTISRDNAKNTVYLQMNSLKPEHTAVDYCAAFSAVDSPLDYWGQGTQVTVSS	low polyreactivity
QVQLVESGGGFVQAGGSLRLICAAYRSIFSLYAMGWYRQAPGKERELVAHISSDGSTNYADSVKGRFTISRDNAKNTVYLQMNSLKPEDTAVYYCAKKPSSARYFTIGFDYWGQGTQVTVSS	low polyreactivity
QVQLVESGGGLVQAGGSLRLSCAASGSTFGAYAMGWYRQAPGKERELVAAISKRGGSTYYADSVKGRFTISLDNAKNTVYLQMNSLKPEDTAVYYCATDHFSPTYGYWGQGTQVTVSS	low polyreactivity
QVQLVESGGGLVQAGGSLRLSCAASGFIFRYYAMGWYRQAPGKERELVAAIRGNSGNTYYADSVKGRFTISRDNAKNTVYLQMNSLKPEDTAVYYCAKPFNIWGQGTQVTVSS	high polyreactivity
QVQLQESGGGLVQAGGSLRQSCAASGYIFPYYSMGSYRQAPGKERGLVACIAAGTTTNYADSVKGRFTISRDNAKKSVYLQMNSLKPEDAAVYYCAALNAFNTGHWYWGQGTQVTVSS	low polyreactivity
